# Source: patent US20200316120A1 (IMMPACT BIO, published 2020)
# Target: HLA-A2 (recombinant, on Raji-HLA-A2 target cells) (human)
# Assay: cell-based or functional assay
binder,measurement,value
"HLA-A2 iCAR (inhibitory chimeric antigen receptor; HLA-A2 scFv from hybridoma BB7.2 fused to PD-1 hinge, transmembrane and intracellular domains) (receptor) EQKLISEEDLQVQLQQSGPELVKPGASVKMSCKASGYTFTSYHIQWVKQRPGQGLEWIGWIYPGDGSTQYNEKFKGKTTLTADKSSSTAYMLLSSLTSEDSAIYFCAREGTYYAMDYWGQGTSVTVSSGGGGSGGGGSGGGGSDVLMTQTPLSLPVSLGDQVSISCRSSQSIVHSNGNTYLEWYLQKPGQSPKLLIYKVSNRFSGVPDRFSGSGSGTDFTLKISRVEAEDLGVYYCFQGSHVPRTFGGGTKLEIKTERRAEVPTAHPSPSPRPAGQFQTLVVGVVGGLLGSLVLLVWVLAVICSRAARGTIGARRTGQPLKEDPSAVPVFSVDYGELDFQWREKTPEPPVPCVPEQTEYATIVFPSGMGTSSPARRGSADGPRSAQPLRPEDGHCSWPL",inhibition of effector T cells expressing the two CARs at a 1:1 ratio (CD107a figure series),50%
same,"percent inhibition of CD107a expression on CD8 T cells; 100*(1-(CD107a with Raji-A2/CD107a with Raji)), aCAR to iCAR ratio 1:5",84%
